Patent US12559863B2, “Macrocyclic modulators of disease associated protein misfolding and aggregation” (RESQ BIOTECH, priority 2017, dated 2026)

Biological target: T1, SOD1(A4V)-GFP (Homo sapiens, UniProt P00441, A5V)
T1 construct: polyHis; expressed in transfected cells; host or cells: E. coli Origami 2(DE3) (BL21(DE3) for the FACS screen)
Assay: Fluorescence of E. coli cells co-expressing SOD1(A4V)-GFP and cyclic peptide
Format: cell-based
Conditions: co-expression of cyclic peptide; compared to random cyclic peptides from initial library
Description: Electrocompetent E. coli BL21(DE3) cells (Novagen, USA) carrying either the expression vector pETSOD1(A4V)-GFP, which produces SOD1(A4V)-GFP under control of the strong bacteriophage T7 promoter, or pETAβ42-GFP, which produces Aβ42-GFP under control of the T7 promoter, were co-transformed with the combined pSICLOPPS-NuX1X2X3-X5 vector library. Approximately 10^8 transformants carrying both the vector library and either pETSOD1(A4V)-GFP or pETAβ42-GFP vectors were harvested, pooled together, and grown in Luria-Bertani (LB) liquid medium containing either 0.005% (pETSOD1(A4F)-GFP) or 0.002% (pETAβ42-GFP) L-arabinose—the inducer of cyclic peptide production—at 37° C. with shaking. When the optical density at 600 nm (OD600) of the bacterial culture was about 0.5, 0.01 (pETSOD1(A4F)-GFP) or 0.1 (pETAβ42-GFP) mM isopropyl-β-D-thiogalactoside (IPTG) was added to the medium to induce overexpression of the reporter. […] The isolated cells were re-grown and screened for additional rounds in an identical manner until the desired enrichment in high-fluorescence clones was achieved.
For SOD1 or SOD1-GFP production, BL21(DE3) (Novagen, USA) or Origami 2(DE3) cells (Novagen, USA) were transformed with the corresponding SOD1- or SOD1-GFP-encoding vector, either with the appropriate pSICLOPPS vector or alone. […]
Bacterial cells corresponding to 1 mL culture with OD600=1 were harvested by centrifugation and re-suspended in 100 μL phosphate-buffered saline (PBS), transferred to a 96-well FLUOTRAC 200 plate (Greiner Bio One International, Austria), and their fluorescence was measured using a TECAN Safire II-Basic plate reader (Tecan, Austria). Excitation was set at 488 nm and emission was measured at 510 nm.

T1 sequence (P00441 whole entry A5V): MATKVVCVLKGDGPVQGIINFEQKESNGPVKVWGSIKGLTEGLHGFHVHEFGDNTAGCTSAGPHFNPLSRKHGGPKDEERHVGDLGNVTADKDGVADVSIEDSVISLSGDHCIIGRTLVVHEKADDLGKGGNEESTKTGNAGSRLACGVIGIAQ

Row | Substance | SOD1(A4V)-GFP fluorescence of E. coli cells
1 | cyclo-TASFW (cyclic) | highest levels of cellular SOD1(A4V)-GFP fluorescence
2 | cyclo-TFSMW (cyclic) | highest levels of cellular SOD1(A4V)-GFP fluorescence
